# Target: T1, Fur (Pseudomonas aeruginosa PA14) (UniProt Q03456)
# T1 sequence: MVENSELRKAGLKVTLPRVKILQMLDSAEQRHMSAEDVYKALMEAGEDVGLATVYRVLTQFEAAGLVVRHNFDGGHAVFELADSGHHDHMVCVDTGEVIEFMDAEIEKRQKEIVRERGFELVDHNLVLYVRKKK
# Experiment: EMSA
# Settings: 25 mM Tris-HCl pH 7.5, 150 mM NaCl, 20 ul, 4 C 30 min; 10% PAGE in 0.5x TBE; no metal stated
sequence,measurement,value
CTGGTCGAGTCGATGATGGTGGCCGGGCGCTGAGGCCGGGTTTCCCTCTATAAAACGCCAGCGCTCGTCGCTGGCGTTTTCGTTTCCGCCTGTTCAATTGTCCGCCTCTATGGGGACCATGCTTGTCTTTTGCCAAGAAGAAAACAATAATCAATCTCATTATCGTCTGGTGAGGTTGCC (double strand) [PfagA (Ppa4471)],binding,binds
